Data on one substance can be found in US20220251546.

This data set deals with T1, IFIT5 (rhIFIT5) (Homo sapiens) (UniProt Q13325).
T1 sequence: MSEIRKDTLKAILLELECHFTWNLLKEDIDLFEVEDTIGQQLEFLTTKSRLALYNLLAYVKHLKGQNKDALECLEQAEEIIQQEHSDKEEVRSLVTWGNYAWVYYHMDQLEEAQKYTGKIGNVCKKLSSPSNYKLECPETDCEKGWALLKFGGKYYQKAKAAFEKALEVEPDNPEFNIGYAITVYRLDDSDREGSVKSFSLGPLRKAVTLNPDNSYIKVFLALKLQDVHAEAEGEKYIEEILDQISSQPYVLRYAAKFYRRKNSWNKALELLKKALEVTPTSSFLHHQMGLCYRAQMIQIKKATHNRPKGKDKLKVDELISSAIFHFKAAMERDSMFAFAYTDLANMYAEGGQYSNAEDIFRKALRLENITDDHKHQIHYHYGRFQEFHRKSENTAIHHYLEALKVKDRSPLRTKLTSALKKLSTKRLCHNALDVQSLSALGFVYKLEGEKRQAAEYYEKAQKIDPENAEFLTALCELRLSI
The data set can be described thus: pulldown. Conditions: 5'-triphosphate; approx. 10-fold enrichment vs 16S rRNA, over 20-fold vs 23S rRNA by RT-qPCR. (Quantitative PCR measures a nucleic acid by following its amplification.)

In the case of Listeria Lmo2210 mRNA and LhrC sRNA, the binding signal is 10 fold.
